# Results published in patent US20190225650A1, “PEPTIDOMIMETIC MACROCYCLES AND USE THEREOF IN REGULATING HIF1ALPHA” (AILERON THERAPEUTICS, INC., priority 2013, published 2019).
# Bridge positions count the residues as written; N and C are the ends. Square brackets hold non-standard residues; d marks the D form. Ala(3-Me-diazirin-3-yl) = CC1(C[C@H](N)C(=O)O)N=N1; S5 = C=CCCC[C@](C)(N)C(=O)O; Nle = CCCC[C@H](N)C(=O)O; Dap = NC[C@H](N)C(=O)O
# Target: T1, His6-tagged p300 (AA 323-423) (UniProt Q09472 323-423)
# T1 construct: range 323-423; also called p300-CH; not shown: His6 tag
# T1 sequence (Q09472 323-423 limits assumed): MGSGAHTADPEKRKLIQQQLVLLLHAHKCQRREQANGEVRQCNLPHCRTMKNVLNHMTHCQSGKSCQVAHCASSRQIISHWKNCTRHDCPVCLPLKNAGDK
# Experiment: TR-FRET HIF1a/p300 displacement; grade = IC50 >700 nM
# Method in brief: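 Competitor peptides were added to the HIF1α CTAD/p300 complex (300 nM final) in 150 mM NaCl, 20 mM HEPES pH 7.4, 7.5 mM CHAPS and 1 mM DTT for 1 h at room temperature. Anti-Flag-K (0.5 μM) and anti-6×His-D2 (4 nM) then followed for 2 h. IC50 came from a one-site logIC50 fit of the donor/acceptor ratio.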
row,Binder,IC50 [nM]
1,Ac-FIDEE[Dap]L[Nle][S5]LVI[S5][Nle]ALDRI-NH2 (staple 9-13; SMILES CCCC[C@H](NC(=O)[C@H](CC(C)C)NC(=O)[C@H](CN)NC(=O)[C@H](CCC(=O)O)NC(=O)[C@H](CCC(=O)O)NC(=O)[C@H](CC(=O)O)NC(=O)[C@@H](NC(=O)[C@H](Cc1ccccc1)NC(C)=O)[C@@H](C)CC)C(=O)N[C@@]1(C)CCCC=CCCC[C@@](C)(C(=O)N[C@@H](CCCC)C(=O)N[C@@H](C)C(=O)N[C@@H](CC(C)C)C(=O)N[C@@H](CC(=O)O)C(=O)N[C@@H](CCCNC(=N)N)C(=O)N[C@H](C(N)=O)[C@@H](C)CC)NC(=O)[C@H]([C@@H](C)CC)NC(=O)[C@H](C(C)C)NC(=O)[C@H](CC(C)C)NC1=O) [SP-64],> 700
2,Ac-FIDE[Dap]VL[Nle][S5]LVI[S5][Nle]ALDRI-NH2 (staple 9-13; SMILES CCCC[C@H](NC(=O)[C@H](CC(C)C)NC(=O)[C@@H](NC(=O)[C@H](CN)NC(=O)[C@H](CCC(=O)O)NC(=O)[C@H](CC(=O)O)NC(=O)[C@@H](NC(=O)[C@H](Cc1ccccc1)NC(C)=O)[C@@H](C)CC)C(C)C)C(=O)N[C@@]1(C)CCCC=CCCC[C@@](C)(C(=O)N[C@@H](CCCC)C(=O)N[C@@H](C)C(=O)N[C@@H](CC(C)C)C(=O)N[C@@H](CC(=O)O)C(=O)N[C@@H](CCCNC(=N)N)C(=O)N[C@H](C(N)=O)[C@@H](C)CC)NC(=O)[C@H]([C@@H](C)CC)NC(=O)[C@H](C(C)C)NC(=O)[C@H](CC(C)C)NC1=O) [SP-63],> 700
3,Ac-FIDEEVLA[S5]LVI[S5]AALD-NH2 (staple 9-13; SMILES CC[C@H](C)[C@H](NC(=O)[C@H](Cc1ccccc1)NC(C)=O)C(=O)N[C@@H](CC(=O)O)C(=O)N[C@@H](CCC(=O)O)C(=O)N[C@@H](CCC(=O)O)C(=O)N[C@H](C(=O)N[C@@H](CC(C)C)C(=O)N[C@@H](C)C(=O)N[C@@]1(C)CCCC=CCCC[C@@](C)(C(=O)N[C@@H](C)C(=O)N[C@@H](C)C(=O)N[C@@H](CC(C)C)C(=O)N[C@@H](CC(=O)O)C(N)=O)NC(=O)[C@H]([C@@H](C)CC)NC(=O)[C@H](C(C)C)NC(=O)[C@H](CC(C)C)NC1=O)C(C)C) [SP-60],> 700
4,Ac-FI[Dap]EEVL[Nle][S5]LVI[S5][Nle]ALDRI-NH2 (staple 9-13; SMILES CCCC[C@H](NC(=O)[C@H](CC(C)C)NC(=O)[C@@H](NC(=O)[C@H](CCC(=O)O)NC(=O)[C@H](CCC(=O)O)NC(=O)[C@H](CN)NC(=O)[C@@H](NC(=O)[C@H](Cc1ccccc1)NC(C)=O)[C@@H](C)CC)C(C)C)C(=O)N[C@@]1(C)CCCC=CCCC[C@@](C)(C(=O)N[C@@H](CCCC)C(=O)N[C@@H](C)C(=O)N[C@@H](CC(C)C)C(=O)N[C@@H](CC(=O)O)C(=O)N[C@@H](CCCNC(=N)N)C(=O)N[C@H](C(N)=O)[C@@H](C)CC)NC(=O)[C@H]([C@@H](C)CC)NC(=O)[C@H](C(C)C)NC(=O)[C@H](CC(C)C)NC1=O) [SP-62],> 700
5,Ac-FIDEEVLS[S5]LVI[S5][Nle]ALDRI-NH2 (staple 9-13; SMILES CCCC[C@H](NC(=O)[C@]1(C)CCCC=CCCC[C@](C)(NC(=O)[C@H](CO)NC(=O)[C@H](CC(C)C)NC(=O)[C@@H](NC(=O)[C@H](CCC(=O)O)NC(=O)[C@H](CCC(=O)O)NC(=O)[C@H](CC(=O)O)NC(=O)[C@@H](NC(=O)[C@H](Cc2ccccc2)NC(C)=O)[C@@H](C)CC)C(C)C)C(=O)N[C@@H](CC(C)C)C(=O)N[C@@H](C(C)C)C(=O)N[C@@H]([C@@H](C)CC)C(=O)N1)C(=O)N[C@@H](C)C(=O)N[C@@H](CC(C)C)C(=O)N[C@@H](CC(=O)O)C(=O)N[C@@H](CCCNC(=N)N)C(=O)N[C@H](C(N)=O)[C@@H](C)CC) [SP-50],> 700

# Further lines, results first:
row,IC50 [nM],Binder
1,> 700,Ac-FIDEQVL[Nle][S5]LVI[S5][Nle]ALDRI-NH2 (staple 9-13; SMILES CCCC[C@H](NC(=O)[C@H](CC(C)C)NC(=O)[C@@H](NC(=O)[C@H](CCC(N)=O)NC(=O)[C@H](CCC(=O)O)NC(=O)[C@H](CC(=O)O)NC(=O)[C@@H](NC(=O)[C@H](Cc1ccccc1)NC(C)=O)[C@@H](C)CC)C(C)C)C(=O)N[C@@]1(C)CCCC=CCCC[C@@](C)(C(=O)N[C@@H](CCCC)C(=O)N[C@@H](C)C(=O)N[C@@H](CC(C)C)C(=O)N[C@@H](CC(=O)O)C(=O)N[C@@H](CCCNC(=N)N)C(=O)N[C@H](C(N)=O)[C@@H](C)CC)NC(=O)[C@H]([C@@H](C)CC)NC(=O)[C@H](C(C)C)NC(=O)[C@H](CC(C)C)NC1=O) [SP-69]
2,> 700,Ac-FIDEEVL[Nle][S5]LVI[S5][Nle]ALD[Dap]-NH2 (staple 9-13; SMILES CCCC[C@H](NC(=O)[C@H](CC(C)C)NC(=O)[C@@H](NC(=O)[C@H](CCC(=O)O)NC(=O)[C@H](CCC(=O)O)NC(=O)[C@H](CC(=O)O)NC(=O)[C@@H](NC(=O)[C@H](Cc1ccccc1)NC(C)=O)[C@@H](C)CC)C(C)C)C(=O)N[C@@]1(C)CCCC=CCCC[C@@](C)(C(=O)N[C@@H](CCCC)C(=O)N[C@@H](C)C(=O)N[C@@H](CC(C)C)C(=O)N[C@@H](CC(=O)O)C(=O)N[C@@H](CN)C(N)=O)NC(=O)[C@H]([C@@H](C)CC)NC(=O)[C@H](C(C)C)NC(=O)[C@H](CC(C)C)NC1=O) [SP-68]
3,> 700,Ac-FIDEQVLA[S5]LVI[S5]AALDRI-NH2 (staple 9-13; SMILES CC[C@H](C)[C@H](NC(=O)[C@H](CCCNC(=N)N)NC(=O)[C@H](CC(=O)O)NC(=O)[C@H](CC(C)C)NC(=O)[C@H](C)NC(=O)[C@H](C)NC(=O)[C@]1(C)CCCC=CCCC[C@](C)(NC(=O)[C@H](C)NC(=O)[C@H](CC(C)C)NC(=O)[C@@H](NC(=O)[C@H](CCC(N)=O)NC(=O)[C@H](CCC(=O)O)NC(=O)[C@H](CC(=O)O)NC(=O)[C@@H](NC(=O)[C@H](Cc2ccccc2)NC(C)=O)[C@@H](C)CC)C(C)C)C(=O)N[C@@H](CC(C)C)C(=O)N[C@@H](C(C)C)C(=O)N[C@@H]([C@@H](C)CC)C(=O)N1)C(N)=O) [SP-70]
4,> 700,Ac-FIDEEV[Ala(3-Me-diazirin-3-yl)][Nle][S5]LVI[S5][Nle]ALDRI-NH2 (staple 9-13) [SP-71]
